Consider 1 substance from paper PMC3701042, “Structural Studies of a Bacterial tRNA^HIS Guanylyltransferase (Thg1)-Like Protein, with Nucleotide in the Activation and Nucleotidyl Transfer Sites” (PLoS ONE, 2013).

Experiment [1] concerns the target Bacillus thuringiensis tRNA^His guanylyltransferase (Thg1)-like protein (TLP) (Bacillus thuringiensis). As to the kind of experiment: crystal structure; BtTLP co-crystallised with ~2 mM GTP; tetragonal crystals, space group P4_(1), 2.96 Å; four monomers per asymmetric unit.
Experiment [2] shares this target. As to the kind of experiment: crystal structure; BtTLP co-crystallised with ~1 mM ATP; orthorhombic crystals, space group C222_(1), 2.35 Å; four molecules per asymmetric unit (two dimers).

A word on the stoichiometry N: it is the number of molecules, sites or subunits per partner or assembly. On to “Bacillus thuringiensis tRNA^His guanylyltransferase (Thg1)-like protein (TLP) (enzyme)”, for which the stoichiometry N in experiment [1] and in experiment [2] was 4 in each case.
